Measured values from patent publication US20260146093A1 (DREN BIO MANAGEMENT, published 2026).

Columns and labels:
[1] = molecular target: T1, human Dectin-1 isoform A on HEK-Blue hDectin-1a cells (human, UniProt Q9BXN2 1-247); experiment: cell-based or functional assay
T1 sequence: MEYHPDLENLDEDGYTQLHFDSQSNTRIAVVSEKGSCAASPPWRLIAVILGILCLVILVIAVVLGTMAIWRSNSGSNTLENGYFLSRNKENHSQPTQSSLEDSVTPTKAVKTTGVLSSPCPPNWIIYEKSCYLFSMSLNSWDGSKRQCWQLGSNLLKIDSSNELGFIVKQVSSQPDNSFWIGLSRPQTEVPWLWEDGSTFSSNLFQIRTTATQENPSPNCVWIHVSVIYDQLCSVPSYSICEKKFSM

[2] = molecular target: T1, human Dectin-1 isoform A on HEK-Blue …; experiment: flow cytometry on HEK cells expressing hDectin-1 (sheet title: Binding to HEK Blue Dectin 1a cells)
[3] = molecular target: T2, human Trop-2 expressed on cells (A-431, NCI-N87, SKBR3, CHO-K1-hTrop2) (human, UniProt P09758 27-323); experiment: flow cytometry on CHO-K1 cells expressing hTrop-2 (sheet title: Binding to Chok1 hTrop2)
T2 sequence: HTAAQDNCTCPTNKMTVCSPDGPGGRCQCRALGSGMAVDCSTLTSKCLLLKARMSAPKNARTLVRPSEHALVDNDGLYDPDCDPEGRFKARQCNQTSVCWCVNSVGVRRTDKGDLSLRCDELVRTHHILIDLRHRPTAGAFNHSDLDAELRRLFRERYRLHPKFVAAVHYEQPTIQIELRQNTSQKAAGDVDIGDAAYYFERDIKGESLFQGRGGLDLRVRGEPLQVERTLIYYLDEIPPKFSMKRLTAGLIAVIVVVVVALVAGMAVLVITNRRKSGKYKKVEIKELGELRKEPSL

B1: Dectin-1 2M24.124 x Trop-2 clone A hIgG1 (bispecific antibody)
anti-Dectin-1 heavy chain: QVQLVQSGAEVKKPGASVKVSCKASGYTFTDYYMHWVRQAPGQGLEWMGWINPNEGDTNYAQKFEGRITMTRDTSISTAYMELSRLRSDDTAVYYCARNTGAYSFGYWGCGTLVTVSS
anti-Dectin-1 light chain: DIQMTQSPSSVSASVGDRVTITCRASQGISSWLAWYQQKPGKCPKLLIYGASDLQSGVPSRFSGSGSGTDFTLTISSLQPEDFATYYCQQAYGFPFTFGPGTKVDIK
anti-Trop-2 heavy chain: QVQLQQSGSELKKPGASVKVSCKASGYTFTNYGMNWVKQAPGQGLKWMGWINTYTGEPTYTDDFKGRFAFSLDTSVSTAYLQISSLKADDTAVYFCARGGFGSSYWYFDVWGQGSLVTVSS
anti-Trop-2 light chain: DIQLTQSPSSLSASVGDRVSITCKASQDVSIAVAWYQQKPGKAPKLLIYSASYRYTGVPDRFSGSGSGTDFTLTISSLQPEDFAVYYCQQHYITPLTFGAGTKVEIK
notes: member of group m9; also called 2M24.124xTrop-2 clone A hG1; disulfide-engineered Fab-format bispecific, clone A
EC50 of SEAP secretion by the hDectin-1 reporter cells (hDec1 Reporter Assay; the Trop-2-expressing cell line is not named) [1]: 0.62 nM
EC50 (read off the curve) [2]: ~0.7 nM
EC50 (read off the curve) [3]: ~5 nM

B2: Dectin-1 2M24.124 x Trop-2 clone B hIgG1 (bispecific antibody)
anti-Dectin-1 heavy chain: QVQLVQSGAEVKKPGASVKVSCKASGYTFTDYYMHWVRQAPGQGLEWMGWINPNEGDTNYAQKFEGRITMTRDTSISTAYMELSRLRSDDTAVYYCARNTGAYSFGYWGCGTLVTVSS
anti-Dectin-1 light chain: DIQMTQSPSSVSASVGDRVTITCRASQGISSWLAWYQQKPGKCPKLLIYGASDLQSGVPSRFSGSGSGTDFTLTISSLQPEDFATYYCQQAYGFPFTFGPGTKVDIK
anti-Trop-2 heavy chain: QVQLQESGPGLVKPSGTLSLTCAVSGGSISSSNWWSWVRQPPGKGLEWIGEIYHDGSTDYFPSLKSRVTISVDKSKNQFSLKLSSVTAADTAVYYCARDNWGFDYWGQGTLVTVSS
anti-Trop-2 light chain: DIVLTQSPGTLSLSPGERATLSCRASQSVSSSYLAWYQQKPGQAPRLLISGASSRATGIPDRFSGSGSGTDFTLTISRLEPEDFAVYYCQQYGSSHRTFGQGTKVEIK
notes: member of group m9; also called 2M24.124xTrop-2 clone B hG1; disulfide-engineered Fab-format bispecific, clone B
EC50 of SEAP secretion by the hDectin-1 reporter cells (hDec1 Reporter Assay; the Trop-2-expressing cell line is not named) [1]: 0.61 nM
EC50 (read off the curve) [2]: ~0.7 nM
EC50 (read off the curve) [3]: ~7 nM
